Source: paper PMC11189300

Molecular target: KNL1 (construct of the BLI titrations with ZWINT)
Experiment: BLI
Conditions: immobilized ligand KNL1, end of association (~500 s), parent read from panel c, read off a plot

With “ZWINT (from UniProt O95229) C54A; S85R; I110A; L114A” the response (analyte ZWINT^M2 500 nM, parent: est. 0.19) was 0.055 nm and the response (analyte ZWINT^M2 1000 nM, parent: est. 0.22) was 0.11 nm.

“ZWINT (from UniProt O95229) C54A; L67A; I110A; L114A” showed a response (analyte ZWINT^M1 15.6 nM, parent: est. 0.040) of 0.025 nm, a response (analyte ZWINT^M1 31.2 nM, parent: est. 0.056) of 0.052 nm and a response (analyte ZWINT^M1 62.5 nM, parent: est. 0.071) of 0.071 nm. For the same substance, the response (analyte ZWINT^M1 125 nM, parent: est. 0.10) was 0.1 nm, the response (analyte ZWINT^M1 250 nM, parent: est. 0.14) was 0.14 nm and the response (analyte ZWINT^M1 500 nM, parent: est. 0.19) was 0.2 nm. For the same substance, the response (analyte ZWINT^M1 1,000 nM, parent: est. 0.22) was 0.19 nm.
